B1: Anti-sigma-E factor RseA (Escherichia coli (strain K12)), P0AFX7 (parent)
chain: MQKEQLSALMDGETLDSELLNELAHNPEMQKTWESYHLIRDSMRGDTPEVLHFDISSRVMAAIEEEPVRQPATLIPEAQPAPHQWQKMPFWQKVRPWAAQLTQMGVAACVSLAVIVGVQHYNGQSETSQQPETPVFNTLPMMGKASPVSLGVPSEATANNGQQQQVQEQRRRINAMLQDYELQRRLHSEQLQFEQAQTQQAAVQVPGIQTLGTQSQ
partner: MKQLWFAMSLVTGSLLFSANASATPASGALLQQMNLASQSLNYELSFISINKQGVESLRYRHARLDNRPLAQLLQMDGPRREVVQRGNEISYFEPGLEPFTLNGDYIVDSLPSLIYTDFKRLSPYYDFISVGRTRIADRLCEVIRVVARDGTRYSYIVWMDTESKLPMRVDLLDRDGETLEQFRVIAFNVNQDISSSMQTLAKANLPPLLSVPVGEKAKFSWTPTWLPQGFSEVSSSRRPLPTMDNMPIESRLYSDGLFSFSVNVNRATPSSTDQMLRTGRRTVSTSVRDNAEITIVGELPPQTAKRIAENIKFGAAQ
B2: Sigma-E factor regulatory protein RseB (Escherichia coli (strain K12)), P0AFX9 (parent)
chain: B1 partner
partner: B1 chain

Variants of: B1
Settings: with rseb_ecoli rseB

Variant	effect of a mutation on the interaction
S188A	decreasing interaction
R185A	decreasing interaction
L177A	decreasing interaction
M176A	decreasing interaction
Q178A	decreasing interaction
L186A	decreasing interaction
H187A	decreasing interaction
L182A	decreasing interaction
D179A	decreasing interaction
Y180A	decreasing interaction
N174A	decreasing interaction
E181A	decreasing interaction
Q183A	decreasing interaction

Variants of: B1
Settings: with rseb_ecoli rseB
Remark: another data set of the same source

Variant	effect of a mutation on the interaction
E189A	decreasing interaction
I173A	decreasing interaction

Variants of: B1
Settings: with rseb_ecoli rseB
Remark: another data set of the same source

Variant	effect of a mutation on the interaction
L186C	increasing interaction strength
I173C	increasing interaction strength
D179C	increasing interaction strength

Variants of: B1
Settings: with rseb_ecoli rseB
Remark: another data set of the same source

Variant	effect of a mutation on the interaction
H187C	increasing interaction strength

Variants of: B2
Settings: with rsea_ecoli rseA

Variant	effect of a mutation on the interaction
R238A;R239A	decreasing interaction
I249A;E250A	decreasing interaction
D171A	decreasing interaction
E178A	decreasing interaction
D245A;N246A;I249A;E250A	decreasing interaction
Q182A	decreasing interaction
D176A	decreasing interaction
I249A	decreasing interaction
E250A	decreasing interaction

Variants of: B2
Settings: with rsea_ecoli rseA
Remark: another data set of the same source

Variant	effect of a mutation on the interaction
D174A	decreasing interaction
E181A	decreasing interaction

Reference: IntAct's records for PubMed 19103591
